Data from PMC5814829.
Numbering of substitutions follows the chain as printed. Like-named read-outs stand apart in the source and are kept apart here.

Legend:
ScPif1p (237-780) [1] = molecular target: T1, ScPif1p (237-780) (Saccharomyces cerevisiae, UniProt P07271 237-780); assay: fluorescence anisotropy
T1 sequence: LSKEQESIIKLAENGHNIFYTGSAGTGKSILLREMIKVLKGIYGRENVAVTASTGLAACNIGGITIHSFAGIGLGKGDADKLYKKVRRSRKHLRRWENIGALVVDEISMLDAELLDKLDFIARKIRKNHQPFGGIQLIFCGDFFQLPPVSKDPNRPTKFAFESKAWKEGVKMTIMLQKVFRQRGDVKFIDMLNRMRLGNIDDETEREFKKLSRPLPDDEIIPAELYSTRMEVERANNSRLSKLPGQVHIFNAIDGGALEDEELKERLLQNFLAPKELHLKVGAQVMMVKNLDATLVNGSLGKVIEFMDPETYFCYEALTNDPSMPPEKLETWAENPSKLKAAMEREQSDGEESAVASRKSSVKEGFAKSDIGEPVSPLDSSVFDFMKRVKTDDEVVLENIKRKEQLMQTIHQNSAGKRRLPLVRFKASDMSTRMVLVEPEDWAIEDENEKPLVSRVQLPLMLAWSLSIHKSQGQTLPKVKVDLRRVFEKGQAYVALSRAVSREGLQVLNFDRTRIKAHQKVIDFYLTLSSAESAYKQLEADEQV

ScPif1p (237-780) [2] = molecular target: T1, ScPif1p (237-780); assay: fluorescence anisotropy; remark: listed apart in the source
ScPif1p H303G/H705G = molecular target: T2, ScPif1p H303G/H705G (Saccharomyces cerevisiae, UniProt P07271 237-780, H303G;H705G); assay: fluorescence anisotropy
T2 sequence: T1 sequence with H67G, H469G

ScPif1p (237-780) [3] = molecular target: T1, ScPif1p (237-780); assay: crystal structure
ScPif1p (237-780) [4] = molecular target: T1, ScPif1p (237-780); assay: crystal structure; remark: listed apart in the source
ScPif1p (237-780) [5] = molecular target: T1, ScPif1p (237-780); assay: SEC-SAXS
ScPif1p (237-780) [6] = molecular target: T1, ScPif1p (237-780); assay: SEC-SAXS, gel filtration
ScPif1p (237-780) [7] = molecular target: T1, ScPif1p (237-780); assay: SEC-SAXS, gel filtration; remark: listed apart in the source

Binder: TTTTTTTTTTTT (ssDNA) [Poly(T12)]
- Kd (ScPif1p (237-780) [1]): 15.1 nM

Binder: CUCUGCUCGACG (ssRNA) [F-RNA12 (text: Poly(U12))]
- Kd (ScPif1p (237-780) [2]): 163 nM
- Kd (ScPif1p H303G/H705G): 70.5 nM

Binder: GGGTTTTT (ssDNA) [Poly(G3T5)]
- binding result (ScPif1p (237-780) [3]): binds

Binder: TTTTTTTT (ssDNA) [Poly(T8)]
- binding result (ScPif1p (237-780) [4]): binds

Binder: TTTGGGTT (ssDNA) [Poly(T3G3T2)]
- binding result (ScPif1p (237-780) [3]): binds

Binder: GTGTGGTGTGG (ssDNA) [GR11]
- binding result (ScPif1p (237-780) [5]): binds

Binder: TTTTTTTTGGGTGGGTGGGTGGGT (structured_DNA) [8T3G4]
- binding result (ScPif1p (237-780) [6]): binds

Binder: AGGGTTAGGGTTAGGGTTAGGG (structured_DNA) [3G4]
- binding result (ScPif1p (237-780) [7]): binds
